B1: BCY10054 (peptide)
peptide: SDKCSXGWLTMCQKLHLCA
modifications: [Aib] as in SDKCS[Aib]GWLTMCQKLHLCA; Ci, Cii, Ciii cyclised on TATA
B2: BCY11828 (peptide)
peptide: Ac-SDKCS[Aad]GWLTMCLKLHLCA
modifications: linker 4-12-18 via TATA
B3: BCY10058 (peptide)
peptide: SDKCSAGWLTXCQKLHLCA
modifications: [Nle] as in SDKCSAGWLT[Nle]CQKLHLCA; Ci, Cii, Ciii cyclised on TATA
B4: BCY10071 (peptide)
peptide: SDKCSAGWLTMCQKXHLCA
modifications: [Nle] as in SDKCSAGWLTMCQK[Nle]HLCA; Ci, Cii, Ciii cyclised on TATA
B5: BCY10073 (peptide)
peptide: SDKCSAGWLTMCQKL[Aib]LCA
modifications: linker 4-12-18 via TATA
B6: BCY11825 (peptide)
peptide: Ac-SEKCS[Aad]GWLTMCLKLHLC
modifications: linker 4-12-18 via TATA
B7: BCY10960 (peptide)
peptide: Ac-SDKCSEGWLTMCQKLHLC
modifications: linker 4-12-18 via TATA; not fully specified (C-terminus); printed as [Ac]SDKCSEGWLTMCQKLHLC
B8: BCY11826 (peptide)
peptide: Ac-EKCS[Aad]GWLTMCLKLHLC
modifications: linker 3-11-17 via TATA
B9: BCY10084 (peptide)
peptide: SDKCSAGWLTMCQK[Nva]HLCA
modifications: linker 4-12-18 via TATA
B10: BCY11853 (peptide)
peptide: Ac-DKCS[Aad]GWLTMCQKLHLCPSH-OH
modifications: linker 3-11-17 via TATA
SMILES: CSCC[C@@H]1NC(=O)[C@H]([C@@H](C)O)NC(=O)[C@H](CC(C)C)NC(=O)[C@H](Cc2c[nH]c3ccccc23)NC(=O)CNC(=O)[C@H](CCCC(=O)O)NC(=O)[C@H](CO)NC(=O)[C@@H](NC(=O)[C@H](CCCCN)NC(=O)[C@H](CC(=O)O)NC(C)=O)CSCCC(=O)N2CN3CN(C2)C(=O)CCSC[C@@H](C(=O)N2CCC[C@H]2C(=O)N[C@@H](CO)C(=O)N[C@@H](Cc2c[nH]cn2)C(=O)O)NC(=O)[C@H](CC(C)C)NC(=O)[C@H](Cc2c[nH]cn2)NC(=O)[C@H](CC(C)C)NC(=O)[C@H](CCCCN)NC(=O)[C@H](CCC(N)=O)NC(=O)[C@H](CSCCC3=O)NC1=O
B11: BCY10062 (peptide)
peptide: SDKCS[Nle]GWLTMCQKLHLCA
modifications: linker 4-12-18 via TATA
B12: BCY11824 (peptide)
peptide: Ac-KCS[Aad]GWLTMCLKLHLC
modifications: linker 2-10-16 via TATA; not fully specified (C-terminus); printed as Ac-KCS[Aad]GWLTMCLKLHLC
B13: BCY10068 (peptide)
peptide: SDKCSAGWLTMCQ[Nle]LHLCA
modifications: linker 4-12-18 via TATA
B14: BCY10083 (peptide)
peptide: SDKCSAGWLTMCQKLH[Nva]CA
modifications: linker 4-12-18 via TATA
B15: BCY10074 (peptide)
peptide: SDKCSAGWLTMCQKLHXCA
modifications: [Nle] as in SDKCSAGWLTMCQKLH[Nle]CA; Ci, Cii, Ciii cyclised on TATA
B16: BCY10052 (peptide)
peptide: SDXCSAGWLTMCQKLHLCA
modifications: [HArg] (homoarginine) = X at chain position 3; Ci, Cii, Ciii cyclised on TATA
B17: BCY11827 (peptide)
peptide: Ac-[hArg]CS[Aad]GWLTMCLKLHLC
modifications: linker 2-10-16 via TATA; not fully specified (C-terminus); printed as Ac-[HArg]CS[Aad]GWLTMCLKLHLC
B18: BCY11831 (peptide)
peptide: Ac-SEKCS[Aad]GWLTMCLKLHLCPSH
modifications: linker 4-12-18 via TATA
B19: BCY10055 (peptide)
peptide: SDKCSXGWLTMCQKLHLCA
modifications: [Abu] as in SDKCS[Abu]GWLTMCQKLHLCA; Ci, Cii, Ciii cyclised on TATA
B20: BCY10066 (peptide)
peptide: SDKCSAGWLTMC[Chg]KLHLCA
modifications: linker 4-12-18 via TATA

*1 amine or outer side, *2 acyl side, *3 side chain or, on linkers, in order; H or OH if unused. Bridges are numbered along the chain shown (N, C = ends). Where no end group is shown, it is not given here. [ ]: non-standard residue; d: D form. TATA = O=C(CC[*:1])N1CN(C(=O)CC[*:2])CN(C(=O)CC[*:3])C1; hArg = N=C(N)NCCCC[C@H](N)C(=O)O; Aad = N[C@@H](CCCC(=O)O)C(=O)O; Chg = N[C@H](C(=O)O)C1CCCCC1; Nle = CCCC[C@H](N)C(=O)O; Nva = CCC[C@H](N)C(=O)O; Aib = CC(C)(N)C(=O)O

T1 sequence (Q9NZQ7 19-238 limits assumed): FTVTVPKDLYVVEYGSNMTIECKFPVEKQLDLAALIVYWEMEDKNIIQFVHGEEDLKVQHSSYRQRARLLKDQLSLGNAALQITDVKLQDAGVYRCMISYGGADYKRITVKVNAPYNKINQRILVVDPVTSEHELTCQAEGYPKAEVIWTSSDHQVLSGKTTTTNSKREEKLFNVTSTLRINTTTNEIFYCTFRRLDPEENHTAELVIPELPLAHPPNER

This test concerns the target T1, Recombinant human PD-L1 (Sino Biologicals or R&D systems), biotinylated (human, UniProt Q9NZQ7 19-238, limits assumed, biotinylated with EZ-Link Sulfo-NHS-LC-LC-Biotin).
T1 construct: captured on a streptavidin CM5 chip for SPR; also called human PD-L1 protein; Biotinylated PD-L1
As to the kind of experiment: SPR (Biacore), biotinylated PD-L1 on streptavidin chip. As to the method:
Biacore experiments were performed to determine kₐ) (M⁻¹s⁻¹), kd (s⁻¹), KD (nM) values of monomeric peptides binding to human PD-L1 protein. […] The protein was desalted to remove uncoupled biotin using spin columns into PBS. For analysis of binding, a Biacore 3000 instrument was used utilizing a CM5 sensor chip (GE Healthcare). Streptavidin was immobilized on the chip using standard amine-coupling chemistry at 25° C. with HBS-N (10 mM HEPES, 0.15 M NaCl, pH 7.4) as the running buffer. The carboxymethyl dextran surface was activated with a 12 min injection of a 1:1 ratio of 0.4 M 1-ethyl-3-(3-dimethylaminopropyl) carbodiimide hydrochloride (EDC)/0.1 M N-hydroxy succinimide (NHS) at a flow rate of 10 μl/min. For capture of streptavidin, protein was diluted to 0.1 mg/ml in 10 mM sodium acetate (pH 4.5) and captured by injecting 70 μl onto the activated chip surface. Residual activated groups were blocked with a 7 min injection of 1 M ethanolamine (pH 8.5). Biotinylated PD-L1 stock was diluted 1:100 in HBS-N and captured on one flow cell at 5 μl/min to a level of 1000-1300 RU. Buffer was changed to PBS/0.05% Tween 20 and a dilution series of the peptides was prepared in this buffer with a final DMSO concentration of 0.5%. The top concentrations were 200 nM or 500 nM with 6 2-fold dilutions. The SPR analysis was run at 25° C. at a flow rate of Flow rate 50 μl/min with 60 seconds association and 400 seconds disassociation. Data were corrected for DMSO excluded volume effects. All data were double-referenced for blank injections and reference surface using standard processing procedures and data processing and kinetic fitting were performed using Scrubber software, version 2.0c (Biologic Software). Data were fitted using mass transport model allowing for mass transport effects where appropriate.
A general note: In SPR one partner is held on a chip, and binding of the other changes the refractive index at the surface.
With B1, the dissociation constant (Kd) turned out to be 31.2 nM.

With B2, the dissociation constant (Kd) was found to be 16.6 nM.

As for B3, the dissociation constant (Kd) was 59.7 nM.

Take B4: the Kd was 58.2 nM.

For B5, the dissociation constant (Kd) came to 15.8 nM.

In the case of B6, the dissociation constant Kd was 28.8 nM.

For B7, the Kd amounted to 9.94 nM.

For B8, the dissociation constant (Kd) was 18.2 nM.

Take B9: the Kd is 43.2 nM.

Turning to B10, the Kd stood at 17.6 nM.

B11: the Kd came to 23 nM.

B12: the Kd turned out to be 60 nM.

Turning to B13, the dissociation constant (Kd) stood at 54.5 nM.

As to B14, the dissociation constant Kd worked out at 75 nM.

As to B15, the Kd came out at 36.1 nM.

With B16, the equilibrium dissociation constant (Kd) worked out at 22.3 nM.

For the molecule B17, the equilibrium dissociation constant (Kd) stood at 30 nM.

Turning to B18, the Kd was found to be 13.2 nM.

As for B19, the Kd stood at 27.9 nM.

With B20, the Kd stood at 14.4 nM.

The Kd is a measure of binding affinity in units of concentration.
